Results as given in publication doi:10.1101/2020.06.18.159665 (bioRxiv, 2020).
Several values for one entry are separate records, joined by “and”; a condition that tells them apart may be missing. Equal entries are not always repeated.

Experiments:
[1] = target: N- and C-terminal double His-tagged GSK3β (His-GSK3β-His) (human, UniProt P49841 1-420); assay: SPR
[2] = target: 6X-HisGSK3β purchased from Signalchem (G09-10H-05) (human, UniProt P49841 1-420); assay: MST
[3] = target: biotinylated 6X-His-GSK3β (human, UniProt P49841 1-420, biotin (site not stated)); assay: BLI
Sequence of biotinylated 6X-His-GSK3β (P49841 whole entry): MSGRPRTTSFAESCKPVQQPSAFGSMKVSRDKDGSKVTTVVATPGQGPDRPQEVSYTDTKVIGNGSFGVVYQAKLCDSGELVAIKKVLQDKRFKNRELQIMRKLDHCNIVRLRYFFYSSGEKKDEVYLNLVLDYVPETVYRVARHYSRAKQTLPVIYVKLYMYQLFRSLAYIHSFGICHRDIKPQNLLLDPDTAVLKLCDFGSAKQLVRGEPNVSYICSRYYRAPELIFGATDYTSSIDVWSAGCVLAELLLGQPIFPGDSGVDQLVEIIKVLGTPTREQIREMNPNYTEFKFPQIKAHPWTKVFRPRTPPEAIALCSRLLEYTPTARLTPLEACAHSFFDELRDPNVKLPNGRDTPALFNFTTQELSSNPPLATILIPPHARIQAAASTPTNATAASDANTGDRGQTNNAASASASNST

Sequence of N- and C-terminal double His-tagged GSK3β (His-GSK3β-His) (P49841 whole entry): as above
Sequence of 6X-HisGSK3β purchased from Signalchem (G09-10H-05) (P49841 whole entry): as above

| koff [1] | kon [1] | Kd [2] | Kd [1] | Kd [3] | Binder |
| --- | --- | --- | --- | --- | --- |
| 0.000249 s⁻¹ | 495 ± 31.4 M⁻¹ s⁻¹ | 5.7 µM | – | – | PEVPPTPPGSHSAFTSSFSFIRLSLGSAGERGEAEGCPPSREAE (peptide, UniProt Q9NRI5 193-236, looked up) [hDISCtide, 44-mer peptide derived from human DISC1 (residues 193-236)] |
| – | – | – | 1.9 µM and 3.2 µM | 3.6 µM and 3.8 µM | DPHRLLQQLVLSGNLIKEAVRRLHS [FRATide] |
| – | – | – | – | 63.6 µM | VEPQKFAEELIHRLEAVQ [AxinGID] |
